Residue numbers refer to the chain shown, from its start. Like-named read-outs stand apart in the source and are kept apart here.
Experiments:
[1] = molecular target: T1, recombinant human TfR (r human TfR: Sino Biological Inc.), hTfR extracellular region with a histidine tag at … (human, UniProt P02786 89-760); experiment: BLI (Octet RED96), His-tagged TfR ECD on Ni-NTA sensor
T1 construct: Bought from Sino Biological; also called r human TfR-ECD (Histag); recombinant hTfR; not shown: histidine tag at the N-terminus
Method: (§1) Each of the sample solutions prepared above by 2-fold dilution steps was added, 200 μL/well, to a 96-well plate, black (Greiner Bio-One Inc.). Each of the r human TfR-ECD (Histag) solution and the r monkey TfR-ECD (Histag) solutions prepared above was added, 200 μL/well, to predetermined wells. To respective wells for baseline, dissociation and washing were added HBS-P+, 200 μL/well. To wells for regeneration were added 10 mM Glycine-HCl (pH 1.7), 200 μL/well. To wells for activation was added 0.5 mM NiCl₂ solution, 200 μL/well. The plate and biosensor (Biosensor/Ni-NTA: ForteBio Inc., a division of Pall Corporation) were set in the prescribed positions of Octet RED96.
(§2) The measurement was performed at 25 to 30° C.
(§3) The affinity of humanized anti-hTfR antibody No. 3 obtained in Example 13 and humanized anti-hTfR antibody No. 3N obtained in Example 17 to human TfR and human TfR was measured by the method described in Example 7. […] Besides, the measurement indicating the affinity of humanized anti-hTfR antibody No. 3 to human TfR differed from that shown in Table 6, but is an experimental error.

[2] = molecular target: T1, recombinant human TfR (r human TfR: …); experiment: as above; remark: listed apart in the source
Method: as §1, §2
(§4) The affinity of the humanized anti-hTfR antibodies obtained in Example 13 to human and monkey TfRs was measured by the method described in Example 7.

[3] = molecular target: T2, recombinant monkey TfR (r monkey TfR: Sino Biological Inc.), crab-eating monkey TfR extracellular region with … (crab-eating monkey (Macaca fascicularis)); experiment: as above
T2 construct: Bought from Sino Biological; also called r monkey TfR-ECD (Histag); not shown: histidine tag at the N-terminus
T2 chain: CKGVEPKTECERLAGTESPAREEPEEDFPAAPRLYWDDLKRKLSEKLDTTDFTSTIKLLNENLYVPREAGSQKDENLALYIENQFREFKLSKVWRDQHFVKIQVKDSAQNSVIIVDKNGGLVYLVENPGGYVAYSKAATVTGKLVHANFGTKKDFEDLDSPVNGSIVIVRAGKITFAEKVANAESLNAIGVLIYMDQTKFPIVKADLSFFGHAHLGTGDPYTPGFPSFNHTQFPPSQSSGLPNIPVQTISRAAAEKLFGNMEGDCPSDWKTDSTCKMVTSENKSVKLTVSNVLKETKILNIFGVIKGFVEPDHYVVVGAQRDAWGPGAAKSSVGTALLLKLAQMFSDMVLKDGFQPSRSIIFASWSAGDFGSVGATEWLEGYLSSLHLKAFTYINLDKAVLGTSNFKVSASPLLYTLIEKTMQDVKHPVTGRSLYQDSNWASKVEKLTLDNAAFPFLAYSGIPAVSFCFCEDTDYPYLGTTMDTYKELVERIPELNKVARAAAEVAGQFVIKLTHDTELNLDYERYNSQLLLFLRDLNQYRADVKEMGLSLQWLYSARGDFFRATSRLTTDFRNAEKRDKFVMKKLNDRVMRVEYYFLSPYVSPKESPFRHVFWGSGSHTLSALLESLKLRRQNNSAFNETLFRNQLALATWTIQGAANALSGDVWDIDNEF
Method: as §1, §2, §4

[4] = molecular target: T2, recombinant monkey TfR (r monkey TfR: …); experiment: as above
Method: as §1, §2
as §3, with “TfR and monkey TfR was” for “TfR and human TfR was”, “3 to monkey TfR differed” for “3 to human TfR differed”, “in Table 7, but is” for “in Table 6, but is”

[5] = molecular target: T1, recombinant human TfR (r human TfR: …); experiment: as above; remark: listed apart in the source
[6] = molecular target: T2, recombinant monkey TfR (r monkey TfR: …); experiment: as above
[7] = molecular target: T2, recombinant monkey TfR (r monkey TfR: …); experiment: BLI (Octet RED96)
[8] = molecular target: T1, recombinant human TfR (r human TfR: …); experiment: BLI (Octet RED96), His-tagged TfR ECD on Ni-NTA sensor; remark: listed apart in the source
Method: (§5) The purified product of anti-hTfR antibody No. 3 was subjected to 2-fold dilution steps with HBS-P+ (10 mM HEPES containing 150 mM NaCl, 50 μM EDTA and 0.05% Surfactant P20) to prepare antibody solutions of 7 different concentrations, 0.78125 to 50 nM (0.117 to 7.5 μg/mL). The antibody solution was used as the sample solution. The r human and r monkey TfRs were respectively diluted with HBS-P+ to prepare 25 μg/mL solutions, which were used as r human TfR-ECD (Histag) solution and r monkey TfR-ECD (Histag) solution, respectively.
as §1, §2

[9] = molecular target: T2, recombinant monkey TfR (r monkey TfR: …); experiment: as above
Method: as §5, §1, §2

B1: humanized anti-hTfR antibody No. 3 (antibody, human IgG1, kappa)
light: DIVMTQTPLSLSVTPGQPASISCRSSQSLVHSNGNTYLHWYLQKPGQSPQLLIYKVSNRFSGVPDRFSGSGSGTDFTLKISRVEAEDVGVYYCSQSTHVPWTFGQGTKVEIKRTVAAPSVFIFPPSDEQLKSGTASVVCLLNNFYPREAKVQWKVDNALQSGNSQESVTEQDSKDSTYSLSSTLTLSKADYEKHKVYACEVTHQGLSSPVTKSFNRGEC
heavy: not shown
notes: IgG1; Expressed from pE-hygr(LC3) and pE-neo(HC3) in CHO cells; also called Humanized anti-hTfR antibody 3
- Kd [1]: < 0.001 nM
- koff [1]: < 1e-07 s⁻¹
- kon [1]: 847000 M⁻¹ s⁻¹
- Kd [2]: < 0.001 nM
- koff [2]: < 1e-07 s⁻¹
- kon [2]: 1.19e+06 M⁻¹ s⁻¹
- Kd [3]: 1.12 nM
- koff [3]: 0.000676 s⁻¹
- kon [3]: 603000 M⁻¹ s⁻¹
- Kd [4]: 1.32 nM
- koff [4]: 0.000806 s⁻¹
- kon [4]: 609000 M⁻¹ s⁻¹

B2: Fab GS3-LAMAN (other)
light: B1 light
heavy: EVQLVQSGAEVKKPGESLKISCKGSGYSFMNYWLGWVRQMPGKGLEWMGDIYPGGDYPTYSEKFKVQVTISADKSISTAYLQLSSLKASDTAMYYCARSGNYDEVAYWGQGTLVTVSSASTKGPSVFPLAPSSKSTSGGTAALGCLVKDYFPEPVTVSWNSGALTSGVHTFPAVLQSSGLYSLSSVVTVPSSSLGTQTYICNVNHKPSNTKVDKKVEPKSCDKTHTGGGGSGGGGSGGGGSGGYETCPTVQPNMLNVHLLPHTHDDVGWLKTVDQYFYGIKNDIQHAGVQYILDSVISALLADPTRRFIYVEIAFFSRWWHQQTNATQEVVRDLVRQGRLEFANGGWVMNDEAATHYGAIVDQMTLGLRFLEDTFGNDGRPRVAWHIDPFGHSREQASLFAQMGFDGFFFGRLDYQDKWVRMQKLEMEQVWRASTSLKPPTADLFTGVLPNGYNPPRNLCWDVLCVDQPLVEDPRSPEYNAKELVDYFLNVATAQGRYYRTNHTVMTMGSDFQYENANMWFKNLDKLIRLVNAQQAKGSSVHVLYSTPACYLWELNKANLTWSVKHDDFFPYADGPHQFWTGYFSSRPALKRYERLSYNFLQVCNQLEALVGLAANVGPYGSGDSAPLNEAMAVLQHHDAVSGTSRQHVANDYARQLAAGWGPCEVLLSNALARLRGFKDHFTFCQQLNISICPLSQTAARFQVIVYNPLGRKVNWMVRLPVSEGVFVVKDPNGRTVPSDVVIFPSSDSQAHPPELLFSASLPALGFSTYSVAQVPRWKPQARAPQPIPRRSWSPALTIENEHIRATFDPDTGLLMEIMNMNQQLLLPVRQTFFWYNASIGDNESDQASGAYIFRPNQQKPLPVSRWAQIHLVKTPLVQEVHQNFSAWCSQVVRLYPGQRHLELEWSVGPIPVGDTWGKEVISRFDTPLETKGRFYTDSNGREILERRRDYRPTWKLNQTEPVAGNYYPVNTRIYITDGNMQLTVLTDRSQGGSSLRDGSLELMVHRRLLKDDGRGVSEPLMENGSGAWVRGRHLVLLDTAQAAAAGHRLLAEQEVLAPQVVLAPGGGAAYNLGAPPRTQFSGLRRDLPPSVHLLTLASWGPEMVLLRLEHQFAVGEDSGRNLSAPVTLNLRDLFSTFTITRLQETTLVANQLREAASRLKWTTNTGPTPHQTPYQLDPANITLEPMEIRTFLASVQWKEVDG
notes: also called Fab HC-GS3-LAMAN
- Kd [5]: < 0.001 nM
- koff [5]: < 1e-07 s⁻¹
- kon [5]: 729000 M⁻¹ s⁻¹
- Kd [6]: < 0.001 nM
- koff [6]: < 1e-07 s⁻¹
- kon [6]: 357000 M⁻¹ s⁻¹

B3: humanized anti-hTfR antibody No. 3-4 (antibody, human IgG1, kappa, V domains shown)
VH: EVQLVQSGAEVKKPGESLKISCKGSGYSFTNYWLGWVRQMPGKGLEWMGDIYPGGDYPTYSEKFKVQVTISADKSISTAYLQWSSLKASDTAMYYCARSGNYDEVAYWGQGTLVTVSS
VL: DIVMTQTPLSLSVTPGQPASISCRSSQSLVHSNGNTYLHWYLQKPGQSPQLLIYKVSNRFSGVPDRFSGSGSGTDFTLKISRVEAEDVGVFFCSQSTHVPWTFGQGTKVEIKR
notes: IgG1
- Kd [2]: < 0.001 nM
- koff [2]: < 1e-07 s⁻¹
- kon [2]: 1.01e+06 M⁻¹ s⁻¹
- Kd [3]: 0.26 nM
- koff [3]: 0.000135 s⁻¹
- kon [3]: 519000 M⁻¹ s⁻¹

B4: humanized anti-hTfR antibody No. 3-2 (antibody, human IgG1, kappa)
light: B1 light with T7S, S12P, Q17E
heavy: not shown
notes: IgG1
- Kd [2]: 0.0239 nM
- koff [2]: 1.45e-05 s⁻¹
- kon [2]: 606000 M⁻¹ s⁻¹
- Kd [3]: 1.77 nM
- koff [3]: 0.000876 s⁻¹
- kon [3]: 495000 M⁻¹ s⁻¹

B5: humanized anti-hTfR antibody No. 3N (antibody, human IgG1, kappa, V domains shown)
VH: B3 VH with T30M, W83L
VL: B3 VL with F91Y, F92Y
notes: IgG1; also called Humanized anti-hTfR antibody 3N
- Kd [1]: < 0.001 nM
- koff [1]: < 1e-07 s⁻¹
- kon [1]: 784000 M⁻¹ s⁻¹
- KD relative to that of humanized anti-hTfR antibody No. 3 [7]: ~0.033 fold
- fold affinity against humanized anti-hTfR antibody No. 3 [7]: ~30 fold
- Kd [4]: 0.0507 nM
- koff [4]: 1.96e-05 s⁻¹
- kon [4]: 386000 M⁻¹ s⁻¹

B6: humanized anti-hTfR antibody No. 3-3 (antibody, human IgG1, kappa)
light: B1 light with S12P, Q17E, K108R, V109L
heavy: not shown
notes: IgG1
- Kd [2]: 0.0209 nM
- koff [2]: 1.25e-05 s⁻¹
- kon [2]: 600000 M⁻¹ s⁻¹
- Kd [3]: 1.91 nM
- koff [3]: 0.000932 s⁻¹
- kon [3]: 488000 M⁻¹ s⁻¹

B7: anti-hTfR antibody No. 3 (mouse antibody produced by hybridoma Clone 3 line) (antibody, V domains shown)
VH: EVQLQESGAELVRPGTSVKISCKASGYSFTNYWLGWVKQRPGHGLEWIGDIYPGGDYPTYSEKFKVKAILTADTSSSSVYLHLSSLTSEDSAVYFCARSGNYDEVAYWGQGTLVTVST
VL: B3 VL with P8T, S12P, T14S, P15L, Q17D, P18Q, Q50K, V88L, Q105G, V109L
notes: Whole mouse antibody purified from hybridoma supernatant on Protein G; also called mouse anti-hTfR antibody No. 3; pre-humanized anti-hTfR antibody
- Kd [8]: < 0.001 nM
- koff [8]: < 1e-07 s⁻¹
- kon [8]: 653000 M⁻¹ s⁻¹
- Kd [9]: < 0.001 nM
- koff [9]: < 1e-07 s⁻¹
- kon [9]: 389000 M⁻¹ s⁻¹
